Reference: IntAct's records for PubMed 17272281

B1: S-M checkpoint control protein rad4 (Schizosaccharomyces pombe (strain ATCC 38366 / 972)), P32372 (parent)
chain: MGSSKPLKGFVICCTSIDLKQRTEISTKATKLGAAYRSDFTKDVTHLIAGDFDTPKYKFAAKSRPDIKIMSSEWIPVLYESWVQGEDLDDGLLVDKHFLPTLFKCRVCLTNIGQPERSRIENYVLKHGGTFCPDLTRDVTHLIAGTSSGRKYEYALKWKINVVCVEWLWQSIQRNAVLEPQYFQLDMPAEKIGLGAYVRLDPNTTEAKSYSENQKISKNKEKSGQSLAALAEEADLEPVIMKRGKKRDRSILWEELNNGKFEFSSRSEENSVLLDDFTPETVQPLEENELDTELNIENEAKLFKNLTFYLYEFPNTKVSRLHKCLSDNGGQISEFLSSTIDFVVIPHYFPVDELPIFSFPTVNEWWIERCLYYKKIFGIDEHALAKPFFRPSLVPYFNGLSIHLTGFKGEELSHLKKALTILGAVVHEFLGVQRSILLVNTNEPFSMKTRFKIQHATEWNVRVVGVAWLWNIIQSGKFIDQVSPWAIDKKENQEIKKFTNQNNMVFPTSDRDTRLQNSLAQQPIGHSTPHNSPSLLSVKKRQNNHIRSNTLIQLNSNSKDSTIFPRRSVTVPGDKIDTVWKSSVTKPETPTSPQEHVSYIDPDAQREKHKLYAQLTSNVDAIPPANDLQNQENGLLLITESHRKLRRR
partner: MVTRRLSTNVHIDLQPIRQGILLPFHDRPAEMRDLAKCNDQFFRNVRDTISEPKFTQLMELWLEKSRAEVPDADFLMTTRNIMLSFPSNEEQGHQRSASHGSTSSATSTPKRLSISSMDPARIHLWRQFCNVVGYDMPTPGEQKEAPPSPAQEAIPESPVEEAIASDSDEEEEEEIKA

Variants of: B1
Conditions: with yq61_schpo yq61, O94733

Row | effect of a mutation on the interaction | Variant
1 | decreasing interaction | S171N
